T1: EsCas13d, nuclease-dead (Eubacterium siraeum, UniProt B0MS50, R295A;H300A;R849A;H854A)
T1 sequence: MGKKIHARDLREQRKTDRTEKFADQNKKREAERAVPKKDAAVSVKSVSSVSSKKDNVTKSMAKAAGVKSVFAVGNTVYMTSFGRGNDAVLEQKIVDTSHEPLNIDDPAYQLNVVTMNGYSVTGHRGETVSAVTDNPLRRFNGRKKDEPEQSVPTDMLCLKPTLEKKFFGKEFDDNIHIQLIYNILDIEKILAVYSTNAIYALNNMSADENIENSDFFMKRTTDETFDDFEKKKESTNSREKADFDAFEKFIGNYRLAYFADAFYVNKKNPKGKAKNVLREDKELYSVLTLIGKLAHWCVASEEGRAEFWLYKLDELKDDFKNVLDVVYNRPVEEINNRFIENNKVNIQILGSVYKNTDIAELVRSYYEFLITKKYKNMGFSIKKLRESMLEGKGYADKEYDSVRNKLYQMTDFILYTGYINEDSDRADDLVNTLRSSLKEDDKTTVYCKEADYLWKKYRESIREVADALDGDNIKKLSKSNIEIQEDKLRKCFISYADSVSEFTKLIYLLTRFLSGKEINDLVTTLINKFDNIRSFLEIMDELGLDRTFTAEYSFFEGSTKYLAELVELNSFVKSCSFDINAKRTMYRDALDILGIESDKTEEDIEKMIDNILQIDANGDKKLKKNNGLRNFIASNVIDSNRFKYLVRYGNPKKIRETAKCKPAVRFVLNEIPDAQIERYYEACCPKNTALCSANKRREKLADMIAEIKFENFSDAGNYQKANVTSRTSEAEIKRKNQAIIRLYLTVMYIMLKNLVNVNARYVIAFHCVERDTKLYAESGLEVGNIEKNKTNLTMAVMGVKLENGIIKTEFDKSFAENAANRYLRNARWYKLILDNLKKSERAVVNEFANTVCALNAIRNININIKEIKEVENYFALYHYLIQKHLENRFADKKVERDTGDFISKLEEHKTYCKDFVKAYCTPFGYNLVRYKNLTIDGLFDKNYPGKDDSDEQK

B1: target 1 MT 5'PFS UAA 3'PFS AAG (mixed)
RNA 1: CACCCGUGCAAAAAUGCAGGGGUCUAAAACUGAGCGGAUAACCUCUCUAUGG
RNA 2: GGGAAUGGAUCCACAUCUACGAAUUCUAACCAUAGAGAGGUUAUCCGCUCAAAGAGAUCGGAAGAGCACACGU
B2: target 1 MT 5'PFS AAG 3'PFS CUG (mixed)
RNA 1: CACCCGUGCAAAAAUGCAGGGGUCUAAAACUGAGCGGAUAACCUCUCUAUGG
RNA 2: GGGAAUGGAUCCACAUCUACGAAUUCAAGCCAUAGAGAGGUUAUCCGCUCACUGAGAUCGGAAGAGCACACGU
B3: target 1 MT 5'PFS GCU 3'PFS CGA (mixed)
RNA 1: CACCCGUGCAAAAAUGCAGGGGUCUAAAACUGAGCGGAUAACCUCUCUAUGG
RNA 2: GGGAAUGGAUCCACAUCUACGAAUUCGCUCCAUAGAGAGGUUAUCCGCUCACGAAGAUCGGAAGAGCACACGU
B4: target 1 MT 5'PFS GUC 3'PFS ACU (mixed)
RNA 1: CACCCGUGCAAAAAUGCAGGGGUCUAAAACUGAGCGGAUAACCUCUCUAUGG
RNA 2: GGGAAUGGAUCCACAUCUACGAAUUCGUCCCAUAGAGAGGUUAUCCGCUCAACUAGAUCGGAAGAGCACACGU
B5: target 1 MT 5'PFS GCU 3'PFS CGC (mixed)
RNA 1: CACCCGUGCAAAAAUGCAGGGGUCUAAAACUGAGCGGAUAACCUCUCUAUGG
RNA 2: GGGAAUGGAUCCACAUCUACGAAUUCGCUCCAUAGAGAGGUUAUCCGCUCACGCAGAUCGGAAGAGCACACGU
B6: target 1 MT 5'PFS AGC 3'PFS UAG (mixed)
RNA 1: CACCCGUGCAAAAAUGCAGGGGUCUAAAACUGAGCGGAUAACCUCUCUAUGG
RNA 2: GGGAAUGGAUCCACAUCUACGAAUUCAGCCCAUAGAGAGGUUAUCCGCUCAUAGAGAUCGGAAGAGCACACGU
B7: target 1 MT 5'PFS GUC 3'PFS UAG (mixed)
RNA 1: CACCCGUGCAAAAAUGCAGGGGUCUAAAACUGAGCGGAUAACCUCUCUAUGG
RNA 2: GGGAAUGGAUCCACAUCUACGAAUUCGUCCCAUAGAGAGGUUAUCCGCUCAUAGAGAUCGGAAGAGCACACGU
B8: target 1 MT 5'PFS GCA 3'PFS UUA (mixed)
RNA 1: CACCCGUGCAAAAAUGCAGGGGUCUAAAACUGAGCGGAUAACCUCUCUAUGG
RNA 2: GGGAAUGGAUCCACAUCUACGAAUUCGCACCAUAGAGAGGUUAUCCGCUCAUUAAGAUCGGAAGAGCACACGU
B9: target 1 MT 5'PFS GUC 3'PFS UAC (mixed)
RNA 1: CACCCGUGCAAAAAUGCAGGGGUCUAAAACUGAGCGGAUAACCUCUCUAUGG
RNA 2: GGGAAUGGAUCCACAUCUACGAAUUCGUCCCAUAGAGAGGUUAUCCGCUCAUACAGAUCGGAAGAGCACACGU
B10: target 1 MT 5'PFS GCC 3'PFS ACA (mixed)
RNA 1: CACCCGUGCAAAAAUGCAGGGGUCUAAAACUGAGCGGAUAACCUCUCUAUGG
RNA 2: GGGAAUGGAUCCACAUCUACGAAUUCGCCCCAUAGAGAGGUUAUCCGCUCAACAAGAUCGGAAGAGCACACGU
B11: target 1 MT 5'PFS AUA 3'PFS CGG (mixed)
RNA 1: CACCCGUGCAAAAAUGCAGGGGUCUAAAACUGAGCGGAUAACCUCUCUAUGG
RNA 2: GGGAAUGGAUCCACAUCUACGAAUUCAUACCAUAGAGAGGUUAUCCGCUCACGGAGAUCGGAAGAGCACACGU
B12: target 1 MT 5'PFS AAG 3'PFS CUC (mixed)
RNA 1: CACCCGUGCAAAAAUGCAGGGGUCUAAAACUGAGCGGAUAACCUCUCUAUGG
RNA 2: GGGAAUGGAUCCACAUCUACGAAUUCAAGCCAUAGAGAGGUUAUCCGCUCACUCAGAUCGGAAGAGCACACGU
B13: target 1 insU 3' of 15,insG 3' of 6 (mixed)
RNA 1: CACCCGUGCAAAAAUGCAGGGGUCUAAAACUGAGCGGAUAACCUCUCUAUGG
RNA 2: GGGAAUGGAUCCACAUCUACGAAUUCGUACCAUAGAGUAGGUUAUCCGGCUCACCGAGAUCGGAAGAGCACACGU
B14: target 1 MT 5'PFS GUG 3'PFS GGA (mixed)
RNA 1: CACCCGUGCAAAAAUGCAGGGGUCUAAAACUGAGCGGAUAACCUCUCUAUGG
RNA 2: GGGAAUGGAUCCACAUCUACGAAUUCGUGCCAUAGAGAGGUUAUCCGCUCAGGAAGAUCGGAAGAGCACACGU
B15: target 1 MT 5'PFS CCG 3'PFS AUC (mixed)
RNA 1: CACCCGUGCAAAAAUGCAGGGGUCUAAAACUGAGCGGAUAACCUCUCUAUGG
RNA 2: GGGAAUGGAUCCACAUCUACGAAUUCCCGCCAUAGAGAGGUUAUCCGCUCAAUCAGAUCGGAAGAGCACACGU
B16: target 1 MT 5'PFS GUC 3'PFS ACA (mixed)
RNA 1: CACCCGUGCAAAAAUGCAGGGGUCUAAAACUGAGCGGAUAACCUCUCUAUGG
RNA 2: GGGAAUGGAUCCACAUCUACGAAUUCGUCCCAUAGAGAGGUUAUCCGCUCAACAAGAUCGGAAGAGCACACGU
B17: target 1 MT 5'PFS AUA 3'PFS AGG (mixed)
RNA 1: CACCCGUGCAAAAAUGCAGGGGUCUAAAACUGAGCGGAUAACCUCUCUAUGG
RNA 2: GGGAAUGGAUCCACAUCUACGAAUUCAUACCAUAGAGAGGUUAUCCGCUCAAGGAGAUCGGAAGAGCACACGU
B18: target 1 A14C,A16G (mixed)
RNA 1: CACCCGUGCAAAAAUGCAGGGGUCUAAAACUGAGCGGAUAACCUCUCUAUGG
RNA 2: GGGAAUGGAUCCACAUCUACGAAUUCGUACCAUAGGGCGGUUAUCCGCUCACCGAGAUCGGAAGAGCACACGU
B19: target 1 MT 5'PFS GUC 3'PFS UAA (mixed)
RNA 1: CACCCGUGCAAAAAUGCAGGGGUCUAAAACUGAGCGGAUAACCUCUCUAUGG
RNA 2: GGGAAUGGAUCCACAUCUACGAAUUCGUCCCAUAGAGAGGUUAUCCGCUCAUAAAGAUCGGAAGAGCACACGU
B20: target 1 MT 5'PFS AUG 3'PFS CGG (mixed)
RNA 1: CACCCGUGCAAAAAUGCAGGGGUCUAAAACUGAGCGGAUAACCUCUCUAUGG
RNA 2: GGGAAUGGAUCCACAUCUACGAAUUCAUGCCAUAGAGAGGUUAUCCGCUCACGGAGAUCGGAAGAGCACACGU
B21: target 1 MT 5'PFS CCA 3'PFS AAU (mixed)
RNA 1: CACCCGUGCAAAAAUGCAGGGGUCUAAAACUGAGCGGAUAACCUCUCUAUGG
RNA 2: GGGAAUGGAUCCACAUCUACGAAUUCCCACCAUAGAGAGGUUAUCCGCUCAAAUAGAUCGGAAGAGCACACGU
B22: target 1 A9U,U19A (mixed)
RNA 1: CACCCGUGCAAAAAUGCAGGGGUCUAAAACUGAGCGGAUAACCUCUCUAUGG
RNA 2: GGGAAUGGAUCCACAUCUACGAAUUCGUACCAAAGAGAGGUUUUCCGCUCACCGAGAUCGGAAGAGCACACGU
B23: target 1 MT 5'PFS ACC 3'PFS CUC (mixed)
RNA 1: CACCCGUGCAAAAAUGCAGGGGUCUAAAACUGAGCGGAUAACCUCUCUAUGG
RNA 2: GGGAAUGGAUCCACAUCUACGAAUUCACCCCAUAGAGAGGUUAUCCGCUCACUCAGAUCGGAAGAGCACACGU
B24: target 1 MT 5'PFS GCA 3'PFS UUC (mixed)
RNA 1: CACCCGUGCAAAAAUGCAGGGGUCUAAAACUGAGCGGAUAACCUCUCUAUGG
RNA 2: GGGAAUGGAUCCACAUCUACGAAUUCGCACCAUAGAGAGGUUAUCCGCUCAUUCAGAUCGGAAGAGCACACGU
B25: target 1 MT 5'PFS GGC 3'PFS CUC (mixed)
RNA 1: CACCCGUGCAAAAAUGCAGGGGUCUAAAACUGAGCGGAUAACCUCUCUAUGG
RNA 2: GGGAAUGGAUCCACAUCUACGAAUUCGGCCCAUAGAGAGGUUAUCCGCUCACUCAGAUCGGAAGAGCACACGU
B26: target 1 MT 5'PFS GCC 3'PFS ACU (mixed)
RNA 1: CACCCGUGCAAAAAUGCAGGGGUCUAAAACUGAGCGGAUAACCUCUCUAUGG
RNA 2: GGGAAUGGAUCCACAUCUACGAAUUCGCCCCAUAGAGAGGUUAUCCGCUCAACUAGAUCGGAAGAGCACACGU
B27: target 1 MT 5'PFS GUC 3'PFS UAU (mixed)
RNA 1: CACCCGUGCAAAAAUGCAGGGGUCUAAAACUGAGCGGAUAACCUCUCUAUGG
RNA 2: GGGAAUGGAUCCACAUCUACGAAUUCGUCCCAUAGAGAGGUUAUCCGCUCAUAUAGAUCGGAAGAGCACACGU
B28: target 1 MT 5'PFS GGC 3'PFS CUU (mixed)
RNA 1: CACCCGUGCAAAAAUGCAGGGGUCUAAAACUGAGCGGAUAACCUCUCUAUGG
RNA 2: GGGAAUGGAUCCACAUCUACGAAUUCGGCCCAUAGAGAGGUUAUCCGCUCACUUAGAUCGGAAGAGCACACGU

These binders were tested against T1, EsCas13d, nuclease-dead (assay: crRNA (strand 1, pre-loaded); Mg2+; 40 mM Tris-HCl pH 7.5, 150 mM NaCl, 6 mM MgCl2, 1 mM DTT, 0.1% Tween-20, 0.2 mg/ml BSA; 25 C; 10 min per concentration, then washed). Conditions: tags: His6-TwinStrep-SUMO cleaved; N-terminal SNAP kept (SNAP-Surface 488); label: 3' end held by stalled T7 RNA polymerase.

In order of falling Kd:
1. B17  ~90 nM
2. B18  ~90 nM
3. B1  66 ± 26 nM
4. B10  ~64 nM
5. B16  ~56 nM
6. B22  52 ± 10 nM
7. B3  49.5 ± 17 nM
8. B20  47.5 ± 22.5 nM
9. B5  42.5 ± 15 nM
10. B12  38.5 ± 13.5 nM
11. B11  27 ± 6.5 nM
12. B14  20.3 ± 2.5 nM
13. B7  17.6 ± 3.35 nM
14. B25  17.1 ± 7.05 nM
15. B6  17 ± 6.5 nM
16. B4  16.9 ± 2.05 nM
17. B27  16.1 ± 3.3 nM
18. B2  16 ± 5 nM
19. B19  16 ± 4.3 nM
20. B9  15.1 ± 3.8 nM
21. B13  14.9 ± 0.8 nM
22. B23  ~12 nM
23. B28  11.3 ± 2.25 nM
24. B26  11.2 ± 2.05 nM
25. B24  9.95 ± 1.2 nM
26. B15  ~8.65 nM
27. B8  7.65 ± 1.2 nM
28. B21  7.3 ± 2.35 nM

— publication PMC10786891, “Massively parallel profiling of RNA-targeting CRISPR-Cas13d”
